Test results as given in the DeepSol protein solubility set.

Assay: soluble on expression in E. coli; label from the status in PepcDB or PDB records

| Sequence | soluble on expression in E. coli |
| --- | --- |
| MLDTQTIAIVKSTIPLLAATGPKLTAHFYERMFKHHPELKNIFNMSNQSSGDQREALFNAICAYATNIENLAALLPTVERIAQKHTSLNIQPEHYPIVGEHLIATLDELFSPGQAVLDAWAKAYGVLADVFIQRESQIYQQSETETGGWRTLRRFRIIKKEQQSEVICSFVLAPEDGGQVLHYKPGQYLGIYIEHESLEFQEIRQYSLTTAPNGKTYRIAVKREEQGTVSNLLHRELNEGDIVRIAPPRGDFFLDVSPDTPVALISAGVGQTPMLSMLNTLYSQQHAAPVHWLHAAENGRVHAFADEVSAIAAKMPNLSRHVWYREPDLQDKHGEDYHSQGLMDLSSYQWLADDPKRHYYFCGPLPFMQFIGRQLLAQGIAPEQIHYECFGPHKVI | not soluble |
| MAHHHHHHMSSATPPLPADSVTASAALRFSVDFDPSRADSKPSVLLLTQNVGGIEAALGTDAGLGETSPECPHSPLPENGGDTSAAFASVPKDFRGPSYIHVPDDIDSELGVSPVVRQQVAEFLADLRQWLHRLSYMSAAVRAAEASATASSAAPASVAGGAPSPPPSPTPCGAAANTEAYMRSYTPSVRPPLIDMVVLHFQEIGGKYKNKHFNEYFKEQIRTSLLPEAGWTSGLLMDERESGDTLSSSSYQRHRATSTVQALRRTSFEGSSTSNNNGNANGHVGDAHRLSDANSNDTDLTAELDADADAYFTAIGSIVFLSPRFMGIASCLSVPHRTYIPIVDDPLTYAGEAGRLFHSGKFAEAGRSRKGFLLLSLRLGTVQFNVCNVHLFNDDDNRVALKSSPSLYTGRRTRAITEAIAECSAVVDLSEPLFIFGDYNVRMDGKSFTEWVEEKMQMTVRAERKRLRCPEQFWELFTNPATQQELRTRFDIEPQHLMDEVALLSSVELAEMPIQFAPTYSRVAYRTRTGATTTSAGADAAALRDVAATPDAQQQIPTLKDLAGRADAIRAEEQEQTEAIRARPSVSTLLAPLASPLASVPLTHVAASPYRDNFCHDRLPAWCDRVMFNVAGLEWISGDRSRTAPPQPQAASSVSGSAASGAGGLKGRQRSGQGCWYAYAAIDFIHMDHDGVFMLF | not soluble |
| MIEINNLSKRYRNKQIFNHLTMSFDSNRLTVLLGDNGAGKSTLLRMIAGIEKANDGTINYFGEKWNQRQIQNHIGYVPQDIALFEHMTVAENIKFFKSLCKNPINDTTINEYLQQLNFDDTSAKVSTLSGGNKRKINILVGLLGQPRILILDEPTVGIDLKSRHDIHQLLNIMKSKCLIILTTHHLDEVEALADDIKLIGQDPFYQHVLEDKQWTYTYY | not soluble |
| MGSDKIHHHHHHMTSKLAAVSHIEKIALGLRDQAHAVIKNILMMSDIPTQELQHAMKQLSHQGRVALHFHPDRIDNRGLTVVQGLLRDGIYKSQFETHISNGQLSPELGGPRDHWENQLFGNSYSGIKSRPKYGALDLGLCPLGPAPRFGSCYFLTHSQVLSRCTFSYMDSYRLPKEKGTLSCFDAILAALLSESFERCYALGRQPFKPRDIMAHMACEAKSSVAARFELPGLGNLDHYIEAQIHGDVSLADDIGYLVADPSFKGTETEEYFNQLCSDYQINLHWHNGLTLACDKVPTDFRGAAMPVLAKQIAIDEVIDAKTVGAEAARLQKQPSSWSERGSQAKKTQELKLLWHVLVRFGKPREDNFDNH | not soluble |
| MKIALMMENSQAAKNAMVAGELNSVAGGLGHDVFNVGMTDENDHHLTYIHLGIMASILLNSKAVDFVVTGCGTGQGALMSCNLHPGVVCGYCLEPSDAFLFNQINNGNAISLAFAKGFGWAGELNVRYIFEKAFTGKRGEGYPIERAAPQQANAAILNNVKAAVAKDVVEGLRAIDQELVKTAVGSTQFQECFFAHCQVPEIAEYVKSLLD | soluble |
| NQLLTQQANEDGLTKLFNRRYIDQKLDSMVAWHGRHHMPMAMILLDVDFFKPFNDNYGHIEGDRCLQAIANQLKATFCRSGEYVGRYGGEEFVVLLSSTDAQTAEREAERIQEAMYFLDYQHEFSSVANRVTVSQGVFVFQPTGKENQADLYATADRALYTSKSLGRNTYTMVNAS | not soluble |
| MSLAGHQPILTVSEVTRHLKRTIEDDPLLQDVWMRGEISNFKHHSRGHMYFTLKDEHAKMSAVMFAGNNRFLNFKPENGMKVIVRGEVNVYEPFGQYQLYALEMQPDGIGNLYLAYEQLKERLEQEGLFKEENKKPLPPVARQIAIVTSPTGAAIRDIASTIKRRFPVAQLTLLPVLVQGEEAPHSIAKAIRQANEVGGFDLLIVGRGGGSIEELWAFNEELVARAIYQSVIPIISAVGHETDYTIADFVADVRAATPTGAAELAVPDLKELISRVNQYTERLKRAQHELLKRQKEHLQRLQKSYAFRYPAQLVKQKELELDQQLERLTKHQRRMVSDAKDRLSQLEYRLKRIHPEGRLRQAEQARVKLEVLLKKEFQQMMERKEQQFQQAISSLNLLSPLRVMERGYALPYKAKTQELIKSVKQVRMNDRLHLRVTDGQLICDVKEIESESGGEGYDQKEGHHHHHH | not soluble |
| MSLSDDDVDNVIEVARDSWKWTYKDIYSDEFIENWISEKYSKEKLLNEITKSQLNLDLVFLGSFHESKLIGFIELKISSSKAELLRLYLRPEYTHRGVGRILLSEAEELVKKRDVEECILYVHKKNYIATSFYKKNGFQVKDIYGDDLIMIKRYKVEGHHHHHH | not soluble |
| MVLPERDSPCGWTRMIPLPSDGSVSIAGRSPRLNVEAVEAVVTLPTFKRPEQVLDTLASLRAQRTGRRFAVIVMENEAEVREGAKAVLPLFERGEMPGMVIVAQERGNCSAYNAGWQTAMLHFPNFRHLLVIDDDEIADPHWLERMCMAAETLGADIVGGPQVPVFADAAHARWAEHPVFAPPYRETGRVPALYSSGNLLVGRNVLVAMEPPFLDLKFNFMGGGDSDFLSRAVQNGFVLGWCAEAKVRETVPARRVEPDWIRARSLRNGVISTLVEKKKRAGTPLAGAEVLAKSLALLAAAPFRGLIRLARTGSPAIAIYPVHVALGRVLAEFGYANEQYRQPEKN | not soluble |
| MVIVLVVDSFKDTSNGTSMTAFRFFEALKKRGHVMRVVAPHVDNLGSEEEGYYNLKERYIPLVTEISHKQHILFAKPDEKILRKAFKGADMIHTYLPFLLEKTAVKIAREMQVPYIGSFHLQPEHISYNMKLGWFSWFNMMLFSWFKSSHYRYIHHIHCPSKFIVEELEKYNYGGKKYAISNGFDPMFRFEHPQKSLFDTTPFKIAMVGRYSNEKNQSVLIKAVALSKYKQDIVLLLKGKGPDEKKIKLLAQKLGVKAEFGFVNSNELLEILKTCTLYVHAANVESEAIACLEAISVGIVPVIANSPLSATRQFALDERSLFEPNNAKDLSAKIDWWLENKLERERMQNEYAKSALNYTLENSVIQIEKVYEEAIRDFKNNPHLFKTLSLEHHHHHH | soluble |
| MGSDKIHHHHHHVGRIEGQACPATGIWLLPARRQTAYRIQKTSYSALSAPARMDGTDRLAWGRYDTVGTTLYLAENAECAFSETLSPFKRAIGTVDPLRKDADALGMTLEDFYEEVAYQWQEKSFMNSGTLPRIWRTERQLHIVELPFPGWWIDVEHPETMAAVEAAIPDTLKDLGITHVDTSLLRSNRRDVTTAIADHLRDLVLFDGSYAPGIKFGSRHGAYLNWAVWLRDHDLQLSGDDGLVHLGESPISFNDPDLEAASRRFRLKVF | not soluble |
| MGSDKIHHHHHHMRKLKREAYKLNNIKMLQQDVKYSEEVIEAEFSVEGYSLIDYKRSYTLSRALVNGKWIVYDGNRLESSQKIKEFEICEDFYHESVKAWPNKEKYSRLFTNIKLNEDDQLKVISKKISKSILIHDVKECREEKVVNYVEYNDLNFSYAGNPKDIPSIVEYLRASQSQLTSPSRQVLTESGRLTFILDSEIVASIFHYVLRNFLNGNSPKLKLNEKISSEITIYDNPLNSFSSSFSVFDDEGVKTKKKEIIGDGIITNYLGTLTSKYGEAGNARGILPKPDYFSLEVKQGDWSLNELIDESRGAYIAMGVKKSELIRNSIRITPRSVVKIGQGQIFFREIAIPLQELVTIDAVTRENRGVFIDEEHGGVTPYVRMKVRAILY | not soluble |
| MTADRPALRTGDRDTRLSFGSNLSSFTDYLRGHAPELLPENRIGHRSHSTRGGDGMESGDLAPHGTTIVALTYKGGVLLAGDRRATQGNLIASRDVEAVYVTDEYSAAGIAGTAGIAIELVRLFAVELEHYEKIEGVPLTFDGKANRLASMVRGNLGAAMQGLAVVPLLVGYDLDADDESRAGRIVSYDVVGGRYEERAGYHAVGSGSLFAKSALKKIYSPDSDEETALRAAIESLYDAADDDSATGGPDLTRGIYPTAVTITQAGAVHVSEETTSELARRIVAERTEQGGSAR | soluble |
| AHHHHHHGSKILWAPWRIEYIRAPKHEGCIFCDFPRENRDRERLILYRGKHAFIIMNNYPYNPGHVMVAPYRHVASVEDLTDEEMLEIMKLAALIMKAIRKVMKPDGFNLGFNIGKVAGAGVDGHVHLHIVPRWNGDTNFMPVIADTKVIPESLEQAYEELKKALEEIENAE | soluble |
| MIITLFVMVSGNKVKYEGSGKSGLWMSNLEKSDKTSIGPNYFLNLYWQGSKKEEKWTVVERITLYVDGEKYQDDNVDEYDLSEYTGDEMPGGGRMEDHISTFDYMPEDEVIGHDVLVKVEWRTGQKKQTEAIKLHKKPWYKKLEHHHHHH | not soluble |
| MGSDKIHHHHHHMPEQNSFPPEVDHTRPNPARIYDYGLGGHHNFAADRDQFEKLLEVDPDARLVVSANRAFLRRAVRYCLRQGITQFLDLGSGIPTVGNVHEAAHQLNPRARVVYVDNEPIAVAHTRRLLRENENAEIVQADLRDPDAILGAPETQRLLDLSKPVGLMMVAVLHWVPSADVAGLLSRYREVLAPGSYLAISHLTSEHLPEQMGEVEDVFAETTEPVVYRPRSEAVKLFEGFELVPPGVVYTSQWQSEPYEMVEPPERTKIWAAVGRKL | not soluble |
| MSLKYGIIGAGAMGYRYGVMLQENAGVDVDFIDTWGPNVAKVREQGGVDVARDHQNHHVVPINIYYPEEYQGHPDVWIVFKKQMQLADELKRDASLFHEDQYVFAAMNGMGHFEKIAQYFPENHIIGGTAMIATVLNGPGTVDFMGPKGSEAMHMSKYAGHIDTTTKQVMADFKAADLNPIWSDNFMGMCMSKVVFNAVTNSLCTMFEIQMGQFIEYPGVKDMATQMFNEAYDACERAGIKLIETRQEEIDSVETVSRAYKYHYPSMYQDFSKGRPTEVDYINGYIAKIGREHDYVCRVHEFVTHEVHLAEMMRQYRHPEIPVAEKEGHHHHHH | not soluble |
| MARLNITFSPQAFEDYKYFQQNDKKMVKKINELLKSIDRNGALEGIGKPEKLKSNLTGYYSRRINHEHRLVYTVDDNHIKIASCKYHY | not soluble |
| SNLLYKRWVERCRNIVDKLSEDRIGYVHVKGMDSQSFREVYSEVLGRCRNKEAIIVDTRHNGGGWLHDDLATLLSGKEYQRFVPRGQYIGSDPFNKWLKPSCVLVCEDNYSNAHGFPWVYKELKIGKLIGAPVPGTMTAVWWENQIDPSIVFGIPQVGCMDMRGQYAENHQLSPDIEVYNTPEKALAGEDQQLEAAVQEMLKTIGEKK | not soluble |
| MGSDKIHHHHHHMDVLQKEIDEVYATHPTAHEALDNGIVEQHQQFVRSLTEVNGGCAVISDLSNRKSYVTVHPWANFLGLTPEEAALSVIDSMDEDCIYRRIHPEDLVEKRLMEYKFFQKTFSMSPGERLKYRGRCRLRMMNEKGVYQYIDNLVQIMQNTPAGNVWLIFCLYSLSADQRPEQGIYATITQMERGEVETLSLSEEHRNILSEREKEILRCIRKGLSSKEIAATLYISVNTVNRHRQNILEKLSVGNSIEACRAAELMKLL | not soluble |
| MDPLFLLLPYISSVGKEGKFQSVKQMVMDEDYPGCSRLLQCKQGLDSLHHVADEKEVNDQKYHKYNLEKTLEWLKKKVQRTVNALKKGNISVGGGVKSSTFVRVKHEDASEEDYLRYAHGLISEYISEDLSKDLLKHLELPEISSPKEAEPPSKKRKLSDKPVEAGEDYTKFNSADFARKPPKKMTAAQKSLAKADKTGMKSLASFFSPKVKQEKN | not soluble |
